Here are results for three molecules from article PMC9935876, “Structure of the planar cell polarity cadherins Fat4 and Dachsous1” (Nature Communications, 2023).

Where “and” joins values, the source holds several entries; their conditions need not be identical. Equal entries are not always repeated.

Common to all, as to conditions: both partners purified
Assay [1] concerns the target T1, Human Fat4(EC1-4) F358A (human, UniProt Q6V0I7 43-475, F358A).
T1 construct: human Fat4, EC1-EC4, aa43-475, with F358A in EC4; also called Fat4F358A(EC1-4); Fat4F358A
T1 sequence: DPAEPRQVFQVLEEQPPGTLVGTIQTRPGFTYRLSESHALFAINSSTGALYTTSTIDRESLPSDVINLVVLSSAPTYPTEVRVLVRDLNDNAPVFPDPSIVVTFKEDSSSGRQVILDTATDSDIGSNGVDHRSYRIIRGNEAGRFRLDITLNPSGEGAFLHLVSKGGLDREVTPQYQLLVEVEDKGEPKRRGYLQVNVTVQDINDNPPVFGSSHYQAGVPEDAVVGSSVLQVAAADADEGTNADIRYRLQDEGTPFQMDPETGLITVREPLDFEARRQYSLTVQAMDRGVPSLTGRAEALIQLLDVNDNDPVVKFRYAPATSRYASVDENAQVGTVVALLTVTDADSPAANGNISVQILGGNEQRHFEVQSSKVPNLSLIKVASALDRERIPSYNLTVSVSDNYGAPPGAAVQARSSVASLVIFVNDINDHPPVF
The experiment in a line: ITC; MicroCal ITC200; Fat4 constructs 30 µM in the sample cell, Dchs1 constructs 300 µM as titrants; 20 °C; one set of sites.

The target in assay [2] is T2, Human Fat4(EC1-4) R152A (human, UniProt Q6V0I7 43-475, R152A).
T2 construct: human Fat4, EC1-EC4, aa43-475, with R152A in EC2; also called Fat4R152A(EC1-4); Fat4R152A
T2 sequence: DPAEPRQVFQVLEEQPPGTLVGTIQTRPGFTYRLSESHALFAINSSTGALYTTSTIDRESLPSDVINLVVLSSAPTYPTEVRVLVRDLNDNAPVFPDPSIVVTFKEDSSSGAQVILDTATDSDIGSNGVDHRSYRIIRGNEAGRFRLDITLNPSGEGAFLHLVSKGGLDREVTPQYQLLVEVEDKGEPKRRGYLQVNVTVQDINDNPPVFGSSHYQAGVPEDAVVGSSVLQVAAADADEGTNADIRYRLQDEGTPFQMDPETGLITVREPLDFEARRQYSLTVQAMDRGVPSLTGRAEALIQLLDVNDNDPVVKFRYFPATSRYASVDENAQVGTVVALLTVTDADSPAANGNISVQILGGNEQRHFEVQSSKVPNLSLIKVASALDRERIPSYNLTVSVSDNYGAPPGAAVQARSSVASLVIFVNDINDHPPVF
The description is as above.

Assay [3] has as its target T3, Human Fat4(EC1-4) (human, UniProt Q6V0I7 43-475).
T3 construct: human Fat4, extracellular cadherin domains EC1-EC4, aa43-475; A 3C protease site stands between the protein and the C-terminal BAP-tag and His6; also called WT
T3 sequence: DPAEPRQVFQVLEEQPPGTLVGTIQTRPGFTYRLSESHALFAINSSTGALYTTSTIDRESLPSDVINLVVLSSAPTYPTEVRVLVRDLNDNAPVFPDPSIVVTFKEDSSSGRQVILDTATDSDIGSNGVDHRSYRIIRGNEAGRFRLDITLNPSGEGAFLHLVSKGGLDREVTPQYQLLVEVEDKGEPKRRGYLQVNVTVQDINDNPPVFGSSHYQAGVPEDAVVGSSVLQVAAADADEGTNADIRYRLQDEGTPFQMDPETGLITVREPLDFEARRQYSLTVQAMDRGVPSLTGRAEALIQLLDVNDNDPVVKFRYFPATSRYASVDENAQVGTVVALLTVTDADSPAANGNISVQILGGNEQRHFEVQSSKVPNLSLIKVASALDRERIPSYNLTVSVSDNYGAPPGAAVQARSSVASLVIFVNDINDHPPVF
Described as above.

Assay [4] deals with T4, Human Fat4(EC1-4) (human, UniProt Q6V0I7 43-475).
T4 construct: Fat4, human, EC1-EC4, aa43-475; Tags were cleaved only for the constructs meant for co-crystallisation; nothing is said for ITC; also called Fat4 EC1–EC4
T4 sequence: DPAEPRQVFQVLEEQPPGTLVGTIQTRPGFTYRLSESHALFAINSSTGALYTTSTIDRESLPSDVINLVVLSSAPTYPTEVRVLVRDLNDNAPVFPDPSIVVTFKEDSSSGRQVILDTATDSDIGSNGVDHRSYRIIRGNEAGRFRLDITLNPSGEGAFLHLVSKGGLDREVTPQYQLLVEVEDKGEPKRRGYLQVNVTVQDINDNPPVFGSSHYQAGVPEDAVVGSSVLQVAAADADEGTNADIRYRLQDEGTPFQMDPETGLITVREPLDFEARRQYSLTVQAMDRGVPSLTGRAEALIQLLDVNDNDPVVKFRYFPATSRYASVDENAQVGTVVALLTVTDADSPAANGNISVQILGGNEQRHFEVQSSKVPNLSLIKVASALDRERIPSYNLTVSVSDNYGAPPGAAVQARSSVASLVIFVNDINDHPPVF
The experiment in a line: ITC; MicroCal ITC200; Fat4 construct 30 µM in the sample cell, Dchs1 construct 300 µM as titrant; 20 °C; fitted with one set of sites; two independent experiments. A general note: ITC needs no label: the signal is the heat of the interaction.

The target of assay [5] is T5, Human Fat4F358A(EC1-4) (human, UniProt Q6V0I7 43-475, F358A).
T5 construct: Fat4, human, EC1-EC4, aa43-475, with F358A in EC4
T5 sequence: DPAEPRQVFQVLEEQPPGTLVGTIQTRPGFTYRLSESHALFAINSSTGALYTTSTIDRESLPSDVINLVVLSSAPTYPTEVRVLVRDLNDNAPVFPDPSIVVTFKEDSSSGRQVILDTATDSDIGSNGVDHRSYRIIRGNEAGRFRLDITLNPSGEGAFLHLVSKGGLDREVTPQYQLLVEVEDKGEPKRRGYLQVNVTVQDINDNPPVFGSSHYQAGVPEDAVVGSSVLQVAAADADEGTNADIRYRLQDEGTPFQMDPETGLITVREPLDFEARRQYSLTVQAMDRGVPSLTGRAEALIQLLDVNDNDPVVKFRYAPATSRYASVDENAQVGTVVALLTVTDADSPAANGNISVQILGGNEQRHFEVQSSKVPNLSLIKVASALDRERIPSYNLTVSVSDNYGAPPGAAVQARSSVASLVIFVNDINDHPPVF
The assay is described as above.

Assay [6] addresses T4, Human Fat4(EC1-4). The assay is described as above. The source holds these as a separate data set.

B1: Human Dchs1(EC1-4) (domain or fragment)
chain: DPQAGSLDLQIDEEQPAGTLIGDISAGLPAGTAAPLMYFISAQEGSGVGTDLAIDEHSGVVRTARVLDREQRDRYRFTAVTPDGATVEVTVRVADINDHAPAFPQARAALQVPEHTAFGTRYPLEPARDADAGRLGTQGYALSGDGAGETFRLETRPGPDGTPVPELVVTGELDRENRSHYMLQLEAYDGGSPPRRAQALLDVTLLDINDHAPAFNQSRYHAVVSESLAPGSPVLQVFASDADAGVNGAVTYEINRRQSEGDGPFSIDAHTGLLQLERPLDFEQRRVHELVVQARDGGAHPELGSAFVTVHVRDANDNQPSMTVIFLSADGSPQVSEAAPPGQLVARISVSDPDDGDFAHVNVSLEGGEGHFALSTQDSVIYLVCVARRLDREERDAYNLRVTATDSGSPPLRAEAAFVLHVTDVNDNAPAF
notes: human Dachsous1 (Dchs1), extracellular cadherin domains EC1-EC4, aa43-472; A 3C protease site stands between the protein and the C-terminal BAP-tag and His6; also called Dachsous1; WT
As to B1, the “stoichiometry N” value in assay [1] was determined as 0.915 ± 0.0119 sites; in assay [2], 0.965 ± 0.0359 sites; in assay [3] it was 1.06 ± 0.0114 sites.

B2: Human Dchs1(EC1-4) (domain or fragment)
chain: DPQAGSLDLQIDEEQPAGTLIGDISAGLPAGTAAPLMYFISAQEGSGVGTDLAIDEHSGVVRTARVLDREQRDRYRFTAVTPDGATVEVTVRVADINDHAPAFPQARAALQVPEHTAFGTRYPLEPARDADAGRLGTQGYALSGDGAGETFRLETRPGPDGTPVPELVVTGELDRENRSHYMLQLEAYDGGSPPRRAQALLDVTLLDINDHAPAFNQSRYHAVVSESLAPGSPVLQVFASDADAGVNGAVTYEINRRQSEGDGPFSIDAHTGLLQLERPLDFEQRRVHELVVQARDGGAHPELGSAFVTVHVRDANDNQPSMTVIFLSADGSPQVSEAAPPGQLVARISVSDPDDGDFAHVNVSLEGGEGHFALSTQDSVIYLVCVARRLDREERDAYNLRVTATDSGSPPLRAEAAFVLHVTDVNDNAPAF
notes: Dchs1 (Dachsous1), human, EC1-EC4, aa43-472; also called Dachsous1 EC1–EC4
Turning to B2, the dissociation constant (Kd) in assay [4] was 488 nM and 463 nM; in assay [5], 950 nM and 770 nM.

B3: Human Dchs1F79A(EC1-4) (domain or fragment)
chain: DPQAGSLDLQIDEEQPAGTLIGDISAGLPAGTAAPLMYAISAQEGSGVGTDLAIDEHSGVVRTARVLDREQRDRYRFTAVTPDGATVEVTVRVADINDHAPAFPQARAALQVPEHTAFGTRYPLEPARDADAGRLGTQGYALSGDGAGETFRLETRPGPDGTPVPELVVTGELDRENRSHYMLQLEAYDGGSPPRRAQALLDVTLLDINDHAPAFNQSRYHAVVSESLAPGSPVLQVFASDADAGVNGAVTYEINRRQSEGDGPFSIDAHTGLLQLERPLDFEQRRVHELVVQARDGGAHPELGSAFVTVHVRDANDNQPSMTVIFLSADGSPQVSEAAPPGQLVARISVSDPDDGDFAHVNVSLEGGEGHFALSTQDSVIYLVCVARRLDREERDAYNLRVTATDSGSPPLRAEAAFVLHVTDVNDNAPAF
notes: Dchs1 (Dachsous1), human, EC1-EC4, aa43-472, with F79A in EC1
Take B3: the Kd in assay [6] was 1560 nM and 2480 nM.

By stoichiometry N is commonly meant a count of units in the complex or per binding partner. For orientation: Kd means the concentration at which binding is half-saturated. Lower therefore signals tighter binding.
